Results reported in doi:10.1101/127183.
One block for each substance: values may come before it.

Tests used:
[1] = biological target: COCP with an Ala substitution of Trp-288 (COCP-W288A), carotenoid-bound holoform (Synechocystis); assay: SEC
[2] = biological target: C-terminal OCP-related Carotenoid-binding Protein (COCP), carotenoid-bound holoform (Synechocystis); assay: SEC
[3] = biological target: C-terminal OCP-related Carotenoid-binding Protein (COCP), carotenoid-bound holoform (Synechocystis); assay: cross-linking
[4] = biological target: Synechocystis OCP^WT apoprotein (Apo-OCP) (Synechocystis) (UniProt P74102); assay: cross-linking
Sequence of UniProt P74102 (P74102 whole entry): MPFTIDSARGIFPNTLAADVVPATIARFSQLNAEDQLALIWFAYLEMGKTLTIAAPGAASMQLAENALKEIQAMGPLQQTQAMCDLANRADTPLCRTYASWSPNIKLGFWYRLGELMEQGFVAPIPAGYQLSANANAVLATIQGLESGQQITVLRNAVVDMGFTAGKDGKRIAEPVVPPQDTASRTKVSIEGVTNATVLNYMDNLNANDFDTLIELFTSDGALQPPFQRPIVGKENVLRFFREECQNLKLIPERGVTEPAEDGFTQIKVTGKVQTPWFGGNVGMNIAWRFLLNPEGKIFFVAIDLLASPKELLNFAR

[5] = biological target: Apoprotein of COCP (Apo-COCP) (Synechocystis); assay: SEC
[6] = biological target: Synechocystis OCP^WT apoprotein (Apo-OCP) (Synechocystis) (UniProt P74102); assay: SEC
[7] = biological target: Synechocystis OCP^WT apoprotein (Apo-OCP) (Synechocystis) (UniProt P74102); assay: SEC-SAXS with right angle light scattering
[8] = biological target: Synechocystis OCP^WT apoprotein (Apo-OCP) (Synechocystis) (UniProt P74102); assay: SEC; remark: listed apart in the source

Substance: COCP with an Ala substitution of Trp-288 (COCP-W288A), carotenoid-bound holoform (domain or fragment)
stoichiometry N [1]: 2

Substance: C-terminal OCP-related Carotenoid-binding Protein (COCP), carotenoid-bound holoform (domain or fragment)
stoichiometry N [2]: 2
stoichiometry N [3]: 2
stoichiometry N (COCP subunit per Apo-OCP subunit) [4]: 1

Substance: Apoprotein of COCP (Apo-COCP) (domain or fragment)
stoichiometry N [5]: 2

stoichiometry N [6]: 2
stoichiometry N [7]: 2
stoichiometry N [8]: 2
Substance: Synechocystis OCP^WT apoprotein (Apo-OCP) (from UniProt P74102 1-317) (natural protein)
